Key:
Format in all cases: cell-based, Saccharomyces cerevisiae
[1] = test system: 575 putative partners (preys) of 22 WT SH3-containing proteins; test: DHFR-PCA on solid medium, WT and SH3-deleted baits (Fig. 1B); design: key to Score: 0: SH3-independent; 1: SH3-dependent PPIs; 2: SH3-inhibited PPIs; settings: for medrep (log2 median colony size normalized to plate background, PCA score): label = prey; for SH3-dependent PPIs: number of PPIs, SH3 domain in its own protein, DHFR-PCA, Fig2D,S2F
Summary of the method: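 In S. cerevisiae, 22 SH3-containing baits fused genomically to DHFR F[1,2], either WT or with each SH3 replaced via CRISPR by a poly-Gly/Ser linker, screened against 575 DHFR F[3] preys plus 40 negative controls in 1536 arrays, preys duplicated at randomized positions.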

[2] = test system: ABP1; test: DHFR-PCA on solid medium, bait ABP1 (Fig. 1B); settings: bait ABP1, label = prey; 2-4 replicates
Text: Supplement 41467_2021_21873_MOESM8_ESM.xlsx, sheet "Fig1B" | column: medsize; medrep; Ratio; Score

[3] = test system: Abp1 (1xFLAG); test: Western blot expression level of Abp1 SH3-swapped baits (Fig. S2A-B); design: Flag (2 bands): unit not given here; settings: sheet FigS2A-B; for Ratio Swap/WT Flag: Flag signal relative to Abp1 WT (Abp1-1 to Abp1-4 = 1); for Flag (2 bands): Western blot Flag signal (2 bands), Abp1 WT, SH3-deleted or SH3-swapped
Summary of the method: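 Yeast expressing DHFR F[1,2]-FLAG-tagged baits grown in synthetic complete medium at 30 °C to OD600 ~1.0, lysed with glass beads in Tris pH 7.4/150 mM NaCl/1% Triton X-100. Baits immunoprecipitated on FLAG-M2 beads 120 min at 4 °C, resolved on 10% SDS-PAGE, probed with anti-FLAG HRP (ECL), signals quantified by imager.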

B1: YBL039C (protein, UniProt P28274 1-579, looked up)
CTP synthase 1: MKYVVVSGGVISGIGKGVLASSTGMLMKTLGLKVTSIKIDPYMNIDAGTMSPLEHGECFVLDDGGETDLDLGNYERYLGVTLTKDHNITTGKIYSHVIAKERKGDYLGKTVQIVPHLTNAIQDWIERVAKIPVDDTGMEPDVCIIELGGTVGDIESAPFVEALRQFQFKVGKENFALIHVSLVPVIHGEQKTKPTQAAIKGLRSLGLVPDMIACRCSETLDKPTIDKIAMFCHVGPEQVVNVHDVNSTYHVPLLLLEQKMIDYLHARLKLDEISLTEEEKQRGLELLSKWKATTGNFDESMETVKIALVGKYTNLKDSYLSVIKALEHSSMKCRRKLDIKWVEATDLEPEAQESNKTKFHEAWNMVSTADGILIPGGFGVRGTEGMVLAARWARENHIPFLGVCLGLQIATIEFTRSVLGRKDSHSAEFYPDIDEKNHVVVFMPEIDKETMGGSMRLGLRPTFFQNETEWSQIKKLYGDVSEVHERHRHRYEINPKMVDELENNGLIFVGKDDTGKRCEILELKNHPYYIATQYHPEYTSKVLDPSKPFLGLVAASAGILQDVIEGKYDLEAGENKFNF
[1]; bait SLA1-2, DHFR-PCA, Replicates 4 (2 for YCR009C, YDR388W)
  medrep (log2 median colony size normalized to plate background, PCA score): 2.2515
[1]; bait SLA1-2, label = prey
  Score: 1
[1]; bait SLA1-2, label = prey, only significant differences shown, PPIs completely lost have a ratio of 0.1, gained PPIs 2.5
  Ratio (SH3-deleted/WT medrep): 0.1
[1]; bait SLA1-3, DHFR-PCA, Replicates 4 (2 for YCR009C, YDR388W, YIL033C)
  medrep (log2 median colony size normalized to plate background, PCA score): 2.2515
[1]; bait SLA1-3, label = prey
  Score: 0
[2]
  medrep (log2 median colony size normalized to plate background, PCA score): 3.877

B2: BBC1: yeast SH3-containing protein; SH3-deleted or knockout strain (protein, UniProt P47068 1-1157, looked up)
Myosin tail …: MSEPEVPFKVVAQFPYKSDYEDDLNFEKDQEIIVTSVEDAEWYFGEYQDSNGDVIEGIFPKSFVAVQGSEVGKEAESSPNTGSTEQRTIQPEVEQKDLPEPISPETKKETLSGPVPVPAATVPVPAATVPVPAATAVSAQVQHDSSSGNGERKVPMDSPKLKARLSMFNQDITEQVPLPKSTHLDLENIPVKKTIVADAPKYYVPPGIPTNDTSNLERKKSLKENEKKIVPEPINRAQVESGRIETENDQLKKDLPQMSLKERIALLQEQQRLQAAREEELLRKKAKLEQEHERSAVNKNEPYTETEEAEENEKTEPKPEFTPETEHNEEPQMELLAHKEITKTSREADEGTNDIEKEQFLDEYTKENQKVEESQADEARGENVAEESEIGYGHEDREGDNDEEKEEEDSEENRRAALRERMAKLSGASRFGAPVGFNPFGMASGVGNKPSEEPKKKQHKEKEEEEPEQLQELPRAIPVMPFVDPSSNPFFRKSNLSEKNQPTETKTLDPHATTEHEQKQEHGTHAYHNLAAVDNAHPEYSDHDSDEDTDDHEFEDANDGLRKHSMVEQAFQIGNNESENVNSGEKIYPQEPPISHRTAEVSHDIENSSQNTTGNVLPVSSPQTRVARNGSINSLTKSISGENRRKSINEYHDTVSTNSSALTETAQDISMAAPAAPVLSKVSHPEDKVPPHPVPSAPSAPPVPSAPSVPSAPPVPPAPPALSAPSVPPVPPVPPVSSAPPALSAPSIPPVPPTPPAPPAPPAPLALPKHNEVEEHVKSSAPLPPVSEEYHPMPNTAPPLPRAPPVPPATFEFDSEPTATHSHTAPSPPPHQNVTASTPSMMSTQQRVPTSVLSGAEKESRTLPPHVPSLTNRPVDSFHESDTTPKVASIRRSTTHDVGEISNNVKIEFNAQERWWINKSAPPAISNLKLNFLMEIDDHFISKRLHQKWVVRDFYFLFENYSQLRFSLTFNSTSPEKTVTTLQERFPSPVETQSARILDEYAQRFNAKVVEKSHSLINSHIGAKNFVSQIVSEFKDEVIQPIGARTFGATILSYKPEEGIEQLMKSLQKIKPGDILVIRKAKFEAHKKIGKNEIINVGMDSAAPYSSVVTDYDFTKNKFRVIENHEGKIIQNSYKLSHMKSGKLKVFRIVARGYVGW
[1]
  SH3-dependent PPIs: 19
[3]
  Ratio Swap/WT Flag: 0.7943
  Flag (2 bands): 76893

B3: PEX13 (protein, UniProt P80667 1-386, looked up)
Peroxisomal membrane protein …: MSSTAVPRPKPWETSASLEEPQRNAQSLSAMMTSNQQDSRPTEESNNSNSASESAPEVLPRPAALNSSGTYGESNTIPGIYGNSNYGIPYDNNPYSMNSIYGNSIGRYGYGGSYYGNNYGSFYGGGYGAGAGYGMNNGSGLGESTKATFQLIESLIGAVTGFAQMLESTYMATHNSFFTMISVAEQFGNLKEMLGSFFGIFAIMKFLKKILYRATKGRLGIPPKNFAESEGSKNKLIEDFQKFNDSGTINSNEKATRRKISWKPLLFFLMAVFGFPYLLNKFITKLQTSGTIRASQGNGSEPIDPSKLEFARALYDFVPENPEMEVALKKGDLMAILSKKDPLGRDSDWWKVRTKNGNIGYIPYNYIEIIKRRKKIEHVDDETRTH
[1]
  SH3-dependent PPIs: 1

B4: PIN3 (protein, UniProt Q06449 2-215, looked up)
[PSI+] inducibility protein 3: SASLINRSLTNIRTELDFLKGSNVISNDVYDQINKSLPAKWDPANAPRNASPASLEYVEALYQFDPQQDGDLGLKPGDKVQLLEKLSPEWYKGSCNGRTGIFPANYVKPAFSGSNGPSNLPPPPQYKAQELQQIPTQNSAASSYQQQPFPPPSTNYYQQPQQQPQQAPPPQQQQQQQQHQSSHSHLKSFGSKLGNAAIFGAGASIGSDIVNNIF
[1]
  SH3-dependent PPIs: 13

B5: SHO1 (protein, UniProt P40073 1-367, looked up)
High osmolarity signaling …: MSISSKIRPTPRKPSRMATDHSFKMKKFYADPFAISSISLAIVSWVIAIGGSISSASTNESFPRFTWWGIVYQFLIICSLMLFYCFDLVDHYRIFITTSIAVAFVYNTNSATNLVYADGPKKAAASAGVILLSIINLIWILYYGGDNASPTNRWIDSFSIKGIRPSPLENSLHRARRRGNRNTTPYQNNVYNDAIRDSGYATQFDGYPQQQPSHTNYVSSTALAGFENTQPNTSEAVNLHLNTLQQRINSASNAKETNDNSNNQTNTNIGNTFDTDFSNGNTETTMGDTLGLYSDIGDDNFIYKAKALYPYDADDDDAYEISFEQNEILQVSDIEGRWWKARRANGETGIIPSNYVQLIDGPEEMHR
[1]
  SH3-dependent PPIs: 2

B6: BOI1 (protein, UniProt P38041 1-980, looked up)
BEM1-interacting protein 1: MSLEGNTLGKGAKSFPLYIAVNQYSKRMEDELNMKPGDKIKVITDDGEYNDGWYYGRNLRTKEEGLYPAVFTKRIAIEKPENLHKSPTQESGNSGVKYGNLNDSASNIGKVSSHQQENRYTSLKSTMSDIDKALEELRSGSVEQEVSKSPTRVPEVSTPQLQDEQTLIQEKTRNEENTTHDSLFSSTADLNLSSESLKNISKSNISTKSLEPSSESVRQLDLKMAKSWSPEEVTDYFSLVGFDQSTCNKFKEHQVSGKILLELELEHLKELEINSFGIRFQIFKEIRNIKSAIDSSSNKLDADYSTFAFENQAAQLMPAATVNRDEIQQQISSKCNKLSSESSDRKSSSVTTELQRPSSVVVNPNFKLHDPAEQILDMTEVPNLFADKDIFESPGRAPKPPSYPSPVQPPQSPSFNNRYTNNNARFPPQTTYPPKNKNPTVYSNGLIPNSSTSSDNSTGKFKFPAMNGHDSNSRKTTLTSATIPSINTVNTDESLPAISNISSNATSHHPNRNSVVYNNHKRTESGSSFVDLFNRISMLSPVKSSFDEEETKQPSKASRAVFDSARRKSSYGHSRDASLSEMKKHRRNSSILSFFSSKSQSNPTSPTKQTFTIDPAKMTSHSRSQSNSYSHARSQSYSHSRKHSLVTSPLKTSLSPINSKSNIALAHSETPTSSNNKEAVSQPSEGKHKHKHKHKSKHKHKNSSSKDGSSEEKSKKKLFSSTKESFVGSKEFKRSPSELTQKSTKSILPRSNAKKQQTSAFTEGIRSITAKESMQTADCSGWMSKKGTGAMGTWKQRFFTLHGTRLSYFTNTNDEKERGLIDITAHRVLPASDDDRLISLYAASLGKGKYCFKLVPPQPGSKKGLTFTEPRVHYFAVENKSEMKAWLSAIIKATIDIDTSVPVISSYATPTIPLSKAQTLLEEARLQTQLRDAEEEEGRDQFGWDDTQNKRNSNYPIEQDQFETSDYLESSAFEYPGGRL
[1]
  SH3-dependent PPIs: 3

B7: WT (protein, UniProt P15891 2-592, looked up)
Actin-binding protein: ALEPIDYTTHSREIDAEYLKIVRGSDPDTTWLIISPNAKKEYEPESTGSSFHDFLQLFDETKVQYGLARVSPPGSDVEKIIIIGWCPDSAPLKTRASFAANFAAVANNLFKGYHVQVTARDEDDLDENELLMKISNAAGARYSIQTSSKQQGKASTPPVKKSFTPSKSPAPVSKKEPVKTPSPAPAAKISSRVNDNNDDDDWNEPELKERDFDQAPLKPNQSSYKPIGKIDLQKVIAEEKAKEDPRLVQKPTAAGSKIDPSSDIANLKNESKLKRDSEFNSFLGTTKPPSMTESSLKNDDDKVIKGFRNEKSPAQLWAERKAKQNSGNAETKAEAPKPEVPEDEPEGEPDVKDLKSKFEGLAASEKEEEEMENKFAPPPKKSEPTIISPKPFSKPQEPVKAEEAEQPKTDYKKIGNPLPGMHIEADNEEEPEENDDDWDDDEDEAAQPPLPSRNVASGAPVQKEEPEQEEIAPSLPSRNSIPAPKQEEAPEQAPEEEIEEEAEEAAPQLPSRSSAAPPPPPRRATPEKKPKENPWATAEYDYDAAEDNELTFVENDKIINIEFVDDDWWLGELEKDGSKGLFPSNYVSLGN
[3]
  Ratio Swap/WT Flag: 0.6226
  Flag (2 bands): 60270

Reference: PMC7954794, “Protein context shapes the specificity of SH3 domain-mediated interactions in vivo” (Nature Communications, 2021)
